One block for each molecule: values may come before it.
Experiments:
GFP-14-3-3β = GFP-14-3-3β co-IP with LC-MS/MS, untreated GFP-14-3-3β versus GFP control (14-3-3 interactome); type: binding, human; conditions: pairwise comparison untreated vs GFP
[1] = test system: GFP-14-3-3β and its binding proteins; test: GFP-14-3-3β co-IP with LC-MS/MS label-free quantification, untreated versus PP1c-treated; design: species or system human; conditions: pairwise comparison PP1 vs untreated
[2] = log2 difference, label-free quantification, 3 replicates each

Difference (log2), PP1 vs untreated [1, 2]: 1.808
B1: BST2 (protein, UniProt Q10589 1-161, looked up)
Bone marrow stromal antigen 2: MASTSYDYCRVPMEDGDKRCKLLLGIGILVLLIIVILGVPLIIFTIKANSEACRDGLRAVMECRNVTHLLQQELTEAQKGFQDVEAQAATCNHTVMALMASLDAEKAQGQKKVEELEGEITTLNHKLQDASAEVERLRRENQVLSVRIADKKYYPSSQDSS
Difference (log2), untreated vs GFP (GFP-14-3-3β; [2]): -3.2427

Difference (log2), PP1 vs untreated [1]: -0.04518 log2
B2: MYBBP1A (protein, UniProt Q9BQG0 1-1328, looked up)
Myb-binding protein 1A: MESRDPAQPMSPGEATQSGARPADRYGLLKHSREFLDFFWDIAKPEQETRLAATEKLLEYLRGRPKGSEMKYALKRLITGLGVGRETARPCYSLALAQLLQSFEDLPLCSILQQIQEKYDLHQVKKAMLRPALFANLFGVLALFQSGRLVKDQEALMKSVKLLQALAQYQNHLQEQPRKALVDILSEVSKATLQEILPEVLKADLNIILSSPEQLELFLLAQQKVPSKLKKLVGSVNLFSDENVPRLVNVLKMAASSVKKDRKLPAIALDLLRLALKEDKFPRFWKEVVEQGLLKMQFWPASYLCFRLLGAALPLLTKEQLHLVMQGDVIRHYGEHVCTAKLPKQFKFAPEMDDYVGTFLEGCQDDPERQLAVLVAFSSVTNQGLPVTPTFWRVVRFLSPPALQGYVAWLRAMFLQPDLDSLVDFSTNNQKKAQDSSLHMPERAVFRLRKWIIFRLVSIVDSLHLEMEEALTEQVARFCLFHSFFVTKKPTSQIPETKHPFSFPLENQAREAVSSAFFSLLQTLSTQFKQAPGQTQGGQPWTYHLVQFADLLLNHSHNVTTVTPFTAQQRQAWDRMLQTLKELEAHSAEARAAAFQHLLLLVGIHLLKSPAESCDLLGDIQTCIRKSLGEKPRRSRTKTIDPQEPPWVEVLVEILLALLAQPSHLMRQVARSVFGHICSHLTPRALQLILDVLNPETSEDENDRVVVTDDSDERRLKGAEDKSEEGEDNRSSESEEESEGEESEEEERDGDVDQGFREQLMTVLQAGKALGGEDSENEEELGDEAMMALDQSLASLFAEQKLRIQARRDEKNKLQKEKALRRDFQIRVLDLVEVLVTKQPENALVLELLEPLLSIIRRSLRSSSSKQEQDLLHKTARIFTHHLCRARRYCHDLGERAGALHAQVERLVQQAGRQPDSPTALYHFNASLYLLRVLKGNTAEGCVHETQEKQKAGTDPSHMPTGPQAASCLDLNLVTRVYSTALSSFLTKRNSPLTVPMFLSLFSRHPVLCQSLLPILVQHITGPVRPRHQACLLLQKTLSMREVRSCFEDPEWKQLMGQVLAKVTENLRVLGEAQTKAQHQQALSSLELLNVLFRTCKHEKLTLDLTVLLGVLQGQQQSLQQGAHSTGSSRLHDLYWQAMKTLGVQRPKLEKKDAKEIPSATQSPISKKRKKKGFLPETKKRKKRKSEDGTPAEDGTPAATGGSQPPSMGRKKRNRTKAKVPAQANGTPTTKSPAPGAPTRSPSTPAKSPKLQKKNQKPSQVNGAPGSPTEPAGQKQHQKALPKKGVLGKSPLSALARKKARLSLVIRSPSLLQSGAKKKAQVRKAGKP
Difference (log2), untreated vs GFP (GFP-14-3-3β): 2.289 log2

Difference (log2), PP1 vs untreated [1]: -0.04086 log2
B3: SNRPA1 (protein, UniProt P09661 2-255, looked up)
U2 small nuclear …: VKLTAELIEQAAQYTNAVRDRELDLRGYKIPVIENLGATLDQFDAIDFSDNEIRKLDGFPLLRRLKTLLVNNNRICRIGEGLDQALPCLTELILTNNSLVELGDLDPLASLKSLTYLSILRNPVTNKKHYRLYVIYKVPQVRVLDFQKVKLKERQEAEKMFKGKRGAQLAKDIARRSKTFNPGAGLPTDKKKGGPSPGDVEAIKNAIANASTLAEVERLKGLLQSGQIPGRERRSGPTDDGEEEMEEDTVTNGS
Difference (log2), untreated vs GFP (GFP-14-3-3β): 0.8199 log2

Difference (log2), PP1 vs untreated [1]: -0.03516 log2
B4: TUBB6 (protein, UniProt Q9BUF5 1-446, looked up)
Tubulin beta-6 chain: MREIVHIQAGQCGNQIGTKFWEVISDEHGIDPAGGYVGDSALQLERINVYYNESSSQKYVPRAALVDLEPGTMDSVRSGPFGQLFRPDNFIFGQTGAGNNWAKGHYTEGAELVDAVLDVVRKECEHCDCLQGFQLTHSLGGGTGSGMGTLLISKIREEFPDRIMNTFSVMPSPKVSDTVVEPYNATLSVHQLVENTDETYCIDNEALYDICFRTLKLTTPTYGDLNHLVSATMSGVTTSLRFPGQLNADLRKLAVNMVPFPRLHFFMPGFAPLTSRGSQQYRALTVPELTQQMFDARNMMAACDPRHGRYLTVATVFRGPMSMKEVDEQMLAIQSKNSSYFVEWIPNNVKVAVCDIPPRGLKMASTFIGNSTAIQELFKRISEQFSAMFRRKAFLHWFTGEGMDEMEFTEAESNMNDLVSEYQQYQDATANDGEEAFEDEEEEIDG
Difference (log2), untreated vs GFP (GFP-14-3-3β): -0.8713 log2

Difference (log2), PP1 vs untreated [1]: -0.02668 log2
B5: SLC1A5 (protein, UniProt Q15758 1-541, looked up)
Neutral amino acid …: MVADPPRDSKGLAAAEPTANGGLALASIEDQGAAAGGYCGSRDQVRRCLRANLLVLLTVVAVVAGVALGLGVSGAGGALALGPERLSAFVFPGELLLRLLRMIILPLVVCSLIGGAASLDPGALGRLGAWALLFFLVTTLLASALGVGLALALQPGAASAAINASVGAAGSAENAPSKEVLDSFLDLARNIFPSNLVSAAFRSYSTTYEERNITGTRVKVPVGQEVEGMNILGLVVFAIVFGVALRKLGPEGELLIRFFNSFNEATMVLVSWIMWYAPVGIMFLVAGKIVEMEDVGLLFARLGKYILCCLLGHAIHGLLVLPLIYFLFTRKNPYRFLWGIVTPLATAFGTSSSSATLPLMMKCVEENNGVAKHISRFILPIGATVNMDGAALFQCVAAVFIAQLSQQSLDFVKIITILVTATASSVGAAGIPAGGVLTLAIILEAVNLPVDHISLILAVDWLVDRSCTVLNVEGDALGAGLLQNYVDRTESRSTEPELIQVKSELPLDPLPVPTEEGNPLLKHYRGPAGDATVASEKESVM
Difference (log2), untreated vs GFP (GFP-14-3-3β): 0.7589 log2

Difference (log2), PP1 vs untreated [1]: -0.03585 log2
B6: FARP1 (protein, UniProt Q9Y4F1 1-1045, looked up)
FERM, ARHGEF and pleckstrin …: MGEIEQRPTPGSRLGAPENSGISTLERGQKPPPTPSGKLVSIKIQMLDDTQEAFEVPQRAPGKVLLDAVCNHLNLVEGDYFGLEFPDHKKITVWLDLLKPIVKQIRRPKHVVVKFVVKFFPPDHTQLQEELTRYLFALQVKQDLAQGRLTCNDTSAALLISHIVQSEIGDFDEALDREHLAKNKYIPQQDALEDKIVEFHHNHIGQTPAESDFQLLEIARRLEMYGIRLHPAKDREGTKINLAVANTGILVFQGFTKINAFNWAKVRKLSFKRKRFLIKLRPDANSAYQDTLEFLMASRDFCKSFWKICVEHHAFFRLFEEPKPKPKPVLFSRGSSFRFSGRTQKQVLDYVKEGGHKKVQFERKHSKIHSIRSLASQPTELNSEVLEQSQQSTSLTFGEGAESPGGQSCRRGKEPKVSAGEPGSHPSPAPRRSPAGNKQADGAASAPTEEEEEVVKDRTQQSKPQPPQPSTGSLTGSPHLSELSVNSQGGVAPANVTLSPNLSPDTKQASPLISPLLNDQACPRTDDEDEGRRKRFPTDKAYFIAKEVSTTERTYLKDLEVITSWFQSTVSKEDAMPEALKSLIFPNFEPLHKFHTNFLKEIEQRLALWEGRSNAQIRDYQRIGDVMLKNIQGMKHLAAHLWKHSEALEALENGIKSSRRLENFCRDFELQKVCYLPLNTFLLRPLHRLMHYKQVLERLCKHHPPSHADFRDCRAALAEITEMVAQLHGTMIKMENFQKLHELKKDLIGIDNLVVPGREFIRLGSLSKLSGKGLQQRMFFLFNDVLLYTSRGLTASNQFKVHGQLPLYGMTIEESEDEWGVPHCLTLRGQRQSIIVAASSRSEMEKWVEDIQMAIDLAEKSSSPAPEFLASSPPDNKSPDEATAADQESEDDLSASRTSLERQAPHRGNTMVHVCWHRNTSVSMVDFSIAVENQLSGNLLRKFKNSNGWQKLWVVFTNFCLFFYKSHQDNHPLASLPLLGYSLTIPSESENIQKDYVFKLHFKSHVYYFRAESEYTFERWMEVIRSATSSASRPHVLSHKESLVY
Difference (log2), untreated vs GFP (GFP-14-3-3β): 0.5364 log2
